Test results as given in the supplement of paper PMC9732359.
± gives the uncertainty stated by the source.

Test: protein stability index of a GFP-peptide fusion (yeast GPS) (PSI 1-4); higher = more stable; sorted into four equal gates, so the index is relative within each strain
Details: doa10∆
Procedure, shortened: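 Tiled 17-residue peptides from yeast proteins were fused downstream of GFP on a plasmid that also expresses Cherry, and the pooled library was carried in yeast. Mid-log cultures grown in leucine-free medium were sorted into four equal gates by GFP/Cherry fluorescence ratio. Plasmids from each gate were PCR-amplified and Illumina-sequenced, and reads were assigned to strains by barcodes. Each peptide's protein stability index is the sum, over gates, of the gate's read frequency multiplied by its gate number.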
For ERVWNICLYSSFQKNSL [AAR2], the protein stability index was 1.8 ± 0.059. ESCEDILDLKEFDRRIL [RTT102] gave a protein stability index of 2.78 ± 0.16. With ESDAPPKSTAPIFSFGK [YOR098C/NUP1] the protein stability index was 2.72 ± 0.044. Sequence ESDYEPNNETSVLSSKP [SIR3] has a protein stability index of 2.99 ± 0.089. For ESFPDDIPLAKALDNAC [CDC53], the protein stability index was 2.58 ± 0.07. ESIASSNTYKEERSNNL [MCD1] showed a protein stability index of 3.03 ± 0.13. ESKDLLRASFNKLSSIL [SRB4] showed a protein stability index of 1.08 ± 0.097. Work on ESLKKELQIFKTANSSS [YIL149C/MLP2] yielded a protein stability index of 2.78 ± 0.065. Work on ESLPQYVDFVPMYKELW [POP4] yielded a protein stability index of 2.12 ± 0.061. For ESNNPSHDASRSLASFE [SIR4], the protein stability index was 2.97 ± 0.1. ESSDFGAIILTKMDGHA [SRP54] gave a protein stability index of 2.42 ± 0.1. Sequence ESSELNKDSIEECGRTI [CSN12] has a protein stability index of 3.46 ± 0.18. ESYDAALSLHREILCYS [FAS2] showed a protein stability index of 2.18 ± 0.022. ETAKKITFHPKIRARSI [SMC2] gave a protein stability index of 2.91 ± 0.058. Sequence ETAQAINGWELTKAQKY [RPL17A] has a protein stability index of 3.27 ± 0.055. Work on ETDEYISYTSHIEGVVI [RPN1] yielded a protein stability index of 3.13 ± 0.1. ETDHKTNENGETDDNIE [SRB4] showed a protein stability index of 3.01 ± 0.22. ETEIKDLTQLLEKERSI [SMC4] gave a protein stability index of 3.34 ± 0.079. For ETEQEYSPSNEISISFD [YDL116W/NUP84], the protein stability index was 2.65 ± 0.058. Work on ETIENVKLQMIKFGGLI [ECM29] yielded a protein stability index of 3.53 ± 0.1. With ETLENGETRMKMLNEFV [SMC2] the protein stability index was 2.87 ± 0.12. Work on ETLGLKYLGLKPGSIDA [FAS1] yielded a protein stability index of 3.24 ± 0.13. In the case of ETQVLVSTPEKWDITTR [BRR2], the protein stability index is reported as 3.17 ± 0.092. ETVAKSKNAERKWAARA [RPS8A] showed a protein stability index of 3.184 ± 0.028. Sequence EVAKRLVELMFIRSTNS [FAS1] has a protein stability index of 1.79 ± 0.067. With EVEKAHPIRLYTRYLDR [PRP8] the protein stability index was 3.11 ± 0.082. For EVFSVLGIEAARYSIIR [RPO31], the protein stability index was 1.72 ± 0.13. EVHDLIGFITSGTYHLN [POP1] showed a protein stability index of 2.69 ± 0.15. EVKTPKIPLFTFAKSKN [SIR4] gave a protein stability index of 2.77 ± 0.054. Sequence EVLVTPGLEFLDDTTIP [MCD1] has a protein stability index of 2.02 ± 0.057. Work on EVQFGLFSPEEVRAISV [RPO21] yielded a protein stability index of 2.85 ± 0.076. For EVSGSIQYKKEYEELKE [SMC1], the protein stability index was 3.59 ± 0.15. Work on EVSKDLIAVYYSFGGLL [RPB8] yielded a protein stability index of 2.55 ± 0.051. Work on EVTKLLKNEGIDLDHKR [SMC4] yielded a protein stability index of 3.08 ± 0.12. With EVVKSLYDRPLKPDLNK [NAS6] the protein stability index was 3.18 ± 0.11. EVYKAEKDAVSVFGFRT [RPS24A] showed a protein stability index of 3.24 ± 0.15. With EYIDDHRSGKIVVQLNG [RPS22A] the protein stability index was 3.21 ± 0.23. With EYRPFSKKVLECLPAEG [DIS3] the protein stability index was 1.39 ± 0.13. With EYSRDCFCEDHCDKCSV [RPB3] the protein stability index was 3.13 ± 0.19. In the case of FAADGDALVKRFKNSVK [PRE7], the protein stability index is reported as 2.64 ± 0.28. Work on FAAILVLLVLPFTDRSV [COB] yielded a protein stability index of 2.88 ± 0.081. FAALSDSYGQGSMTKTW [SSN2] showed a protein stability index of 3.17 ± 0.094. Work on FAESPFFDKTSNNQVIK [MED6] yielded a protein stability index of 3.49 ± 0.081. Sequence FAEYIQANIQLYSIRED [PRE1] has a protein stability index of 2.39 ± 0.1. In the case of FAFLNAMFFGNYGSSLQ [AAR2], the protein stability index is reported as 2.9 ± 0.064. Sequence FAKEKLTKKEKKEANLF [RPL6A] has a protein stability index of 3.02 ± 0.072. With FAKQVDVQLERVADEDA [IRR1] the protein stability index was 3.15 ± 0.15. FCRDCNNMLYPREDKEN [RPB9] showed a protein stability index of 3.11 ± 0.083. With FDDLEVEELPTFHDYDM [RRP42] the protein stability index was 2.6 ± 0.069. Work on FDKLLNIPRRELKINLP [SRB4] yielded a protein stability index of 2.57 ± 0.074. FDPSKDVLINELLDQVT [CDC53] showed a protein stability index of 2.74 ± 0.066. With FDSLIKVQISKIPILAQ [RPN9] the protein stability index was 2.69 ± 0.081. Sequence FDTDWNPHQDLQAQDRA [SNF2] has a protein stability index of 3.07 ± 0.068. FDVNTLCLMTWKEVMFD [CDC53] showed a protein stability index of 2.61 ± 0.096. FELVHHFFQIDGFNKTF [YML103C/NUP188] showed a protein stability index of 2.03 ± 0.075. For FENVKLLAEYDNIYRNL [MED4], the protein stability index was 2.43 ± 0.052. With FEPSISRSNFQGKHTKF [LRP1] the protein stability index was 3.2 ± 0.1. FEYCRIDGSTSHEERIE [ISW2] gave a protein stability index of 2.44 ± 0.047. Work on FFDPKPFDQNLDSNNNN [SWI1] yielded a protein stability index of 2.98 ± 0.085. FFSSDWRFLQILRNGID [POP1] gave a protein stability index of 2.29 ± 0.073. Work on FGANQATNTFGSNQQSS [YGR119C/NUP57] yielded a protein stability index of 2.91 ± 0.12. With FGSRVMIAKEVKTSPDA [FAS1] the protein stability index was 3.37 ± 0.12. In the case of FHESGSQYSTMVNIGLH [RGR1], the protein stability index is reported as 3.19 ± 0.12. In the case of FHFAIEQISNNSNQQQN [SIN4], the protein stability index is reported as 2.93 ± 0.061. In the case of FHIDHTKPSDLTIKDIV [RPO21], the protein stability index is reported as 2.71 ± 0.048. With FHSAVENLVQGNGNVSE [YCG1] the protein stability index was 3.21 ± 0.092. Sequence FILIPLYKIFSYALSME [SNU114] has a protein stability index of 1.65 ± 0.042. FIRDELDENKWYKFNDD [UBP6] gave a protein stability index of 1.86 ± 0.063. FIRKYINQKALRKIQAL [GAL11] gave a protein stability index of 2.38 ± 0.25. Sequence FITTLLKSLYSFFNISP [SIN4] has a protein stability index of 2.26 ± 0.042. FKDETISKKIIGMSLLM [SIR3] showed a protein stability index of 3.04 ± 0.062. Sequence FKLQEEERERKDQYVPE [RPS17A] has a protein stability index of 3.14 ± 0.14. For FKSALANLEDIIFEIEK [RRP6], the protein stability index was 3.21 ± 0.13. In the case of FKVARELKTEAAVLSNL [ITC1], the protein stability index is reported as 2.83 ± 0.19. In the case of FLANHKDRLYCGKCHSV [RPS31], the protein stability index is reported as 2.38 ± 0.17. Sequence FLDGIYVSHKGFIVEDM [RPL9B] has a protein stability index of 2.24 ± 0.13. With FLIHSGQPVNDFIDTAT [RPS3] the protein stability index was 2.71 ± 0.053. FLIKASVREINLYMLVT [SSN8] gave a protein stability index of 1.55 ± 0.063. In the case of FLKDADVECIKAKSHFT [YJL039C/NUP192], the protein stability index is reported as 3.11 ± 0.13. FLLHNSEIIDTNTSKQF [SRB8] gave a protein stability index of 2.83 ± 0.086. Sequence FLLNQNKQLSQSVEEKV [YIL149C/MLP2] has a protein stability index of 2.16 ± 0.084. Sequence FLNNGEVDSASDFISKL [RPN3] has a protein stability index of 2.57 ± 0.29. Work on FLQKFEIAFHLTLIFYD [YML103C/NUP188] yielded a protein stability index of 1.49 ± 0.083. For FLRKATAFNKTRGPFHF [RPL16B], the protein stability index was 3 ± 0.042. FLRQKICLMTLIETVFV [RPN9] gave a protein stability index of 1.37 ± 0.12. For FLRTMKLTSEETVFNYR [GRR1], the protein stability index was 3.11 ± 0.066. For FMSNDGPTLEKYISAEL [SNU114], the protein stability index was 2.18 ± 0.069. FMVRLDSEKHIDFAPTS [RPS9A] gave a protein stability index of 2.91 ± 0.071. For FNAIDLARHLPAELDLR [RPC82], the protein stability index was 2.46 ± 0.09. FNEDQLFSLLELGEQKC [RRP46] showed a protein stability index of 2.37 ± 0.071. For FNGADIRNCATEAGFFA [RPT4], the protein stability index was 3.32 ± 0.065. FNGLKPLIQNSMRTIMK [PRP8] showed a protein stability index of 2.56 ± 0.091. Sequence FNIIREFRSAAGQLALD [YDL116W/NUP84] has a protein stability index of 2.92 ± 0.12. In the case of FNKTTNIDINNEDENIQ [YJL041W/NSP1], the protein stability index is reported as 3.19 ± 0.074. In the case of FNNEAPPQTRKFQPPPG [SMB1], the protein stability index is reported as 2.86 ± 0.1. With FNPYGDNGGTILGIAGE [PRE7] the protein stability index was 3.37 ± 0.1. FNRTKGKMVRAQDVALA [PRP8] showed a protein stability index of 1.86 ± 0.21. With FNSVQKKSRSNLSQEND [YAR002W/NUP60] the protein stability index was 2.81 ± 0.09. With FNTQQGIKKHSLWRRTV [YDL116W/NUP84] the protein stability index was 2.6 ± 0.049. FNVEYFAKEKLTKKEKK [RPL6A] showed a protein stability index of 2.23 ± 0.084. In the case of FNYSGKDMLYSGITGEC [RET1], the protein stability index is reported as 2.48 ± 0.075. FPEVFQVNIRFLLHNSE [SRB8] showed a protein stability index of 1.64 ± 0.1.
